Experimental findings from the supplement of paper PMC9112550, “Optimization of the antimicrobial peptide Bac7 by deep mutational scanning” (BMC Biology, 2022) are described below.

The test system of this data set is Escherichia coli TOP10. Kind of data set: shrunken log2 fold change of peptide-encoding DNA abundance (4.5 h post-induction vs induction); higher = less antimicrobial activity (less host growth inhibition). The note with it: time post-induction: 4.5 h; library: site-saturation at positions 5, 18, 19, 20.
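Note: peptides expressed intracellularly from a pBAD plasmid library in pooled LB shake-flask culture, induced with 0.3% L-arabinose, DNA abundance read by NGS, three biological replicates, DESeq2 with apeglm shrinkage.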

Consider RRIRGRPPRLPRPRPRPYKSPRP, for which the “shrunken log2 fold change” value was -0.135.
With RRIRVRPPRLPRPRPRPWWPPRP the figure was 0.162; with RRIRARPPRLPRPRPRPHFDPRP, 0.22.
With RRIRVRPPRLPRPRPRPICAPRP the figure was -0.167; with RRIRYRPPRLPRPRPRPFMAPRP, -0.773; with RRIRRRPPRLPRPRPRPPVCPRP, 0.592.
As to RRIRFRPPRLPRPRPRPRIMPRP, the “shrunken log2 fold change” value is -0.624.
Consider RRIRTRPPRLPRPRPRPFWYPRP, for which the “shrunken log2 fold change” value was -0.374.
Under RRIRIRPPRLPRPRPRPWLKPRP stands 4.66; under RRIRRRPPRLPRPRPRPMWQPRP, 0.381; under RRIRDRPPRLPRPRPRPCITPRP, -0.128.
With RRIRNRPPRLPRPRPRPTEHPRP the figure was 0.141.
Regarding RRIRPRPPRLPRPRPRPAEDPRP, the “shrunken log2 fold change” value was -0.114.
Take RRIRCRPPRLPRPRPRPRHHPRP: the “shrunken log2 fold change” value was -0.088.
With RRIRRRPPRLPRPRPRPQIWPRP the figure was 0.279; with RRIRTRPPRLPRPRPRPTFAPRP, 0.459; with RRIRPRPPRLPRPRPRPMPLPRP, -0.0538.
As for RRIRVRPPRLPRPRPRPSPRPRP, the “shrunken log2 fold change” value amounted to 0.415.
With RRIRHRPPRLPRPRPRPLNTPRP, the “shrunken log2 fold change” value is -0.351.
With RRIRDRPPRLPRPRPRPGEMPRP the figure was 0.163; with RRIRWRPPRLPRPRPRPWFIPRP, -0.436; with RRIRNRPPRLPRPRPRPQTPPRP, -0.00271.
Take RRIRERPPRLPRPRPRPGMTPRP: the “shrunken log2 fold change” value is -0.324.
With RRIRLRPPRLPRPRPRPILHPRP the figure was -0.231.
Under RRIRMRPPRLPRPRPRPANVPRP stands -0.0273; under RRIRTRPPRLPRPRPRPCQMPRP, -0.267.
With RRIRPRPPRLPRPRPRPMWMPRP the figure was 0.000224; with RRIRQRPPRLPRPRPRPNESPRP, -0.0813; with RRIRERPPRLPRPRPRPKVQPRP, 0.105.
As for RRIRSRPPRLPRPRPRPHRSPRP, the “shrunken log2 fold change” value is -0.188.
With RRIRSRPPRLPRPRPRPYGHPRP the figure was -0.00193.
In the case of RRIRWRPPRLPRPRPRPLCDPRP, the “shrunken log2 fold change” value is -0.0525.
Take RRIRNRPPRLPRPRPRPTYSPRP: the “shrunken log2 fold change” value was -0.226.
As to RRIRRRPPRLPRPRPRPPWNPRP, the “shrunken log2 fold change” value was determined as 0.474.
In the case of RRIRNRPPRLPRPRPRPCMYPRP, the “shrunken log2 fold change” value is -0.0592.
Under RRIRERPPRLPRPRPRPEGLPRP stands -0.00749; under RRIRIRPPRLPRPRPRPKDMPRP, -0.221.
As to RRIRIRPPRLPRPRPRPANHPRP, the “shrunken log2 fold change” value is -0.528.
With RRIRGRPPRLPRPRPRPYIQPRP, the “shrunken log2 fold change” value was -0.411.
RRIRWRPPRLPRPRPRPELIPRP: the “shrunken log2 fold change” value came to 1.56.
Under RRIRPRPPRLPRPRPRPELEPRP stands 0.219; under RRIRHRPPRLPRPRPRPLKGPRP, 0.0721; under RRIRYRPPRLPRPRPRPGTYPRP, -0.0385.
On to RRIRQRPPRLPRPRPRPVTEPRP, for which the “shrunken log2 fold change” value was -0.35.
In the case of RRIRKRPPRLPRPRPRPQPTPRP, the “shrunken log2 fold change” value was 0.5.
Under RRIRVRPPRLPRPRPRPSMLPRP stands -0.395.
For RRIRVRPPRLPRPRPRPKRTPRP, the “shrunken log2 fold change” value worked out at 0.0795.
Under RRIRYRPPRLPRPRPRPPMGPRP stands -0.239; under RRIRYRPPRLPRPRPRPAIFPRP, -0.0382.
With RRIRVRPPRLPRPRPRPKGNPRP the figure was 0.143; with RRIRIRPPRLPRPRPRPRYCPRP, -0.157; with RRIRYRPPRLPRPRPRPDVMPRP, 0.0199.
Under RRIRYRPPRLPRPRPRPRIRPRP stands 0.0291; under RRIRQRPPRLPRPRPRPVNEPRP, -0.325; under RRIRIRPPRLPRPRPRPTTHPRP, -0.441.
Take RRIRNRPPRLPRPRPRPYMNPRP: the “shrunken log2 fold change” value is -0.207.
Under RRIRFRPPRLPRPRPRPNTIPRP stands -0.409; under RRIRLRPPRLPRPRPRPRIEPRP, -0.0339.
Under RRIRCRPPRLPRPRPRPQTIPRP stands -0.516; under RRIRERPPRLPRPRPRPFYQPRP, -0.0388; under RRIRIRPPRLPRPRPRPMLKPRP, -0.282.
Under RRIRFRPPRLPRPRPRPLWCPRP stands -0.0894.
Consider RRIRSRPPRLPRPRPRPFGMPRP, for which the “shrunken log2 fold change” value was -0.25.
Regarding RRIRARPPRLPRPRPRPPTLPRP, the “shrunken log2 fold change” value came to 0.503.
With RRIRFRPPRLPRPRPRPQDTPRP the figure was -0.46; with RRIRHRPPRLPRPRPRPSTDPRP, -0.406; with RRIRARPPRLPRPRPRPGSYPRP, 0.14.
With RRIRIRPPRLPRPRPRPASSPRP the figure was 0.093.
Under RRIRVRPPRLPRPRPRPCESPRP stands -0.374.
With RRIRWRPPRLPRPRPRPSLEPRP, the “shrunken log2 fold change” value is 0.067.
Under RRIRRRPPRLPRPRPRPWYCPRP stands -0.21; under RRIRNRPPRLPRPRPRPSAEPRP, 0.113; under RRIRKRPPRLPRPRPRPDLFPRP, 0.529.
As to RRIRGRPPRLPRPRPRPMRNPRP, the “shrunken log2 fold change” value turned out to be 1.09.
On to RRIRCRPPRLPRPRPRPQCRPRP, for which the “shrunken log2 fold change” value is -0.421.
Consider RRIRLRPPRLPRPRPRPRTRPRP, for which the “shrunken log2 fold change” value came to 0.519.
With RRIRIRPPRLPRPRPRPMALPRP the figure was -0.581; with RRIRQRPPRLPRPRPRPDGRPRP, 0.0192.
With RRIRGRPPRLPRPRPRPRNGPRP the figure was 0.343; with RRIRNRPPRLPRPRPRPMTVPRP, -0.12; with RRIRKRPPRLPRPRPRPTSPPRP, 0.15.
Under RRIRYRPPRLPRPRPRPDWAPRP stands 0.0528.
Take RRIRNRPPRLPRPRPRPTAAPRP: the “shrunken log2 fold change” value was 0.543.
With RRIRNRPPRLPRPRPRPHGLPRP, the “shrunken log2 fold change” value was -0.257.
Regarding RRIRERPPRLPRPRPRPFRWPRP, the “shrunken log2 fold change” value is 0.0329.
On to RRIRPRPPRLPRPRPRPTKNPRP, for which the “shrunken log2 fold change” value is 0.0886.
Under RRIRLRPPRLPRPRPRPDYTPRP stands -0.295; under RRIRIRPPRLPRPRPRPYKYPRP, -0.89; under RRIRDRPPRLPRPRPRPFADPRP, -0.0225.
With RRIRKRPPRLPRPRPRPSEAPRP, the “shrunken log2 fold change” value was 0.401.
Under RRIRERPPRLPRPRPRPYNQPRP stands -0.0858; under RRIRCRPPRLPRPRPRPKHDPRP, -0.0567; under RRIRSRPPRLPRPRPRPSFLPRP, 0.182.
Under RRIRNRPPRLPRPRPRPRLDPRP stands 0.0403; under RRIRWRPPRLPRPRPRPPSCPRP, 0.0112.
On to RRIRFRPPRLPRPRPRPRDIPRP, for which the “shrunken log2 fold change” value is -0.11.
On to RRIRCRPPRLPRPRPRPAISPRP, for which the “shrunken log2 fold change” value came to 0.0324.
With RRIRLRPPRLPRPRPRPMSTPRP the figure was -0.302; with RRIRGRPPRLPRPRPRPDKGPRP, 0.00725; with RRIRMRPPRLPRPRPRPRYSPRP, -0.342.
Turning to RRIRSRPPRLPRPRPRPYPVPRP, the “shrunken log2 fold change” value is -0.0856.
In the case of RRIRIRPPRLPRPRPRPDFSPRP, the “shrunken log2 fold change” value is -0.175.
On to RRIRSRPPRLPRPRPRPCITPRP, for which the “shrunken log2 fold change” value was -0.185.
Take RRIRSRPPRLPRPRPRPRHQPRP: the “shrunken log2 fold change” value is -0.119.
With RRIRARPPRLPRPRPRPGSNPRP the figure was 0.127.
Under RRIRPRPPRLPRPRPRPMVFPRP stands -0.166.
With RRIRDRPPRLPRPRPRPFCIPRP the figure was -0.0778.
Turning to RRIRHRPPRLPRPRPRPVTRPRP, the “shrunken log2 fold change” value was -0.00217.
RRIRIRPPRLPRPRPRPWAPPRP: the “shrunken log2 fold change” value is -0.19.
Under RRIRYRPPRLPRPRPRPYLLPRP stands -1.28; under RRIRWRPPRLPRPRPRPMFVPRP, -0.51; under RRIRMRPPRLPRPRPRPVNCPRP, 0.181.
With RRIRFRPPRLPRPRPRPITPPRP, the “shrunken log2 fold change” value was -0.128.
With RRIRKRPPRLPRPRPRPNKCPRP the figure was -0.106; with RRIRVRPPRLPRPRPRPMQCPRP, 0.0658.
As for RRIRQRPPRLPRPRPRPLEVPRP, the “shrunken log2 fold change” value was -0.0417.
For the sequence RRIRDRPPRLPRPRPRPVFVPRP, the “shrunken log2 fold change” value was found to be 0.225.
Under RRIRFRPPRLPRPRPRPYLKPRP stands -1.36; under RRIRIRPPRLPRPRPRPLKAPRP, -0.02.
With RRIRLRPPRLPRPRPRPCITPRP the figure was -0.275.
Under RRIRDRPPRLPRPRPRPAIVPRP stands 0.41; under RRIRARPPRLPRPRPRPWGEPRP, -0.00466; under RRIRHRPPRLPRPRPRPVPAPRP, -0.0665.
Turning to RRIRTRPPRLPRPRPRPEEHPRP, the “shrunken log2 fold change” value turned out to be 0.0062.
Under RRIRTRPPRLPRPRPRPHIWPRP stands -0.103.
